To fix the notation:
B1: GST-hDM2 (other)
chain: MCNTNMSVPTDGAVTTSQIPASEQETLVRPKPLLLKLLKSVGAQKDTYTMKEVLFYLGQYIMTKRLYDEKQQHIVYCSNDLLGDLFGVPSFSVKEHRKIYTMIYRNLVVVNQQESSDSGTSVSEN
B2: GST-hDMX (other)
chain: MTSFSTSAQCSTSDSACRISPGQINQVRPKLPLLKILHAAGAQGEMFTVKEVMHYLGQYIMVKQLYDQQEQHMVYCGGDLLGELLGRQSFSVKDPSPLYDMLRKNLVTLATATTDAAQTL

For the first experiment, the target named is T1, hDMX (In-house, 40 kD) (human, UniProt O15151 1-120).
T1 chain: B2 chain
Description: FP competition.
With LTFAAYWSQLAA (not fully specified) [SP-698], the IC50 was 157 nM.

Turning to LTFAAYWVQLAS (not fully specified) [SP-681], the 50% inhibitory concentration (IC50) was determined as 395 nM.

In turn, LTFAFYWAQLAA (not fully specified) [SP-604] displayed an IC50 of 310 nM.

WTFALYWSQLAS (not fully specified) [SP-696] gave an IC50 of 379 nM.

Molecule LTFAAYWAQFAS (not fully specified) [SP-586] returned a half-inhibitory concentration (IC50) of 673 nM.

The next experiment concerns the target T2, hDM2 (In-house, 41 kD) (human, UniProt Q00987 1-125). The experiment in a line: FP competition.
On to LTFAAYWSQLAA (not fully specified) [SP-698], for which the IC50 amounted to 82.2 nM.

For the molecule ETFAAYWAQLAA (not fully specified) [SP-709], the IC50 is 103 nM.

As for LTFAVYWAQLAA (not fully specified) [SP-623], the IC50 amounted to 68.3 nM. This IC50 is about 1.5-fold lower than that of the molecule before.

Molecule LTFAAYWVQLAS (not fully specified) [SP-681] came in with an IC50 of 118 nM.

In turn, LTFAAYWAALAS (not fully specified) [SP-673] yielded a half-maximal inhibitory concentration (IC50) of 137 nM.

Regarding ITFAFYWAQLAS (not fully specified) [SP-684], the IC50 amounted to 104 nM.

With LTFAEYWAQLAA (not fully specified) [SP-671], the IC50 is 63.6 nM.

Another experiment has as its target SP-5. Description: Affinity selection MS.
The molecule B1 yielded a Kd of 25 nM. That is a double-digit nanomolar value.

In turn, B2 registered a Kd of 90 nM.

The next experiment has as its target SP-44. Description: Affinity selection MS.
In turn, B1 had a Kd of 25 nM.

In the case of B2, binding was put at a Kd of 180 nM.

For another experiment, the target named is T1, hDMX (In-house, 40 kD). The experiment in a line: FP competition. This is another data set of the same source.
Consider ETFAAYWAQLAS (not fully specified) [SP-508], for which the IC50 was 88.8 nM.

A further experiment concerns the target T2, hDM2 (In-house, 41 kD). Description: FP competition. The source holds these as a separate data set.
Molecule ETFAAYWAQLAS (not fully specified) [SP-508] had an IC50 of 22.8 nM.

One may read the IC50 as the concentration that inhibits the measured activity by half. Read a high IC50 as lower potency. In general, Kd refers to the free concentration of one partner at which half of the binding sites on the other are occupied at equilibrium, for simple one-to-one binding. High values mean weaker binding, low ones tighter binding.

For the origin of these results see patent publication US8859723 (dated 2014).
